{"source": "patent US11878044B2", "about": "“Combination therapy for ischemia” (NoNO Inc., priority 2011, dated 2024)", "origin": "cited, not measured here", "molecular_target": "binding of NMDAR 2B to PSD-95 (Homo sapiens, UniProt P78352)", "sequence (P78352 whole entry)": "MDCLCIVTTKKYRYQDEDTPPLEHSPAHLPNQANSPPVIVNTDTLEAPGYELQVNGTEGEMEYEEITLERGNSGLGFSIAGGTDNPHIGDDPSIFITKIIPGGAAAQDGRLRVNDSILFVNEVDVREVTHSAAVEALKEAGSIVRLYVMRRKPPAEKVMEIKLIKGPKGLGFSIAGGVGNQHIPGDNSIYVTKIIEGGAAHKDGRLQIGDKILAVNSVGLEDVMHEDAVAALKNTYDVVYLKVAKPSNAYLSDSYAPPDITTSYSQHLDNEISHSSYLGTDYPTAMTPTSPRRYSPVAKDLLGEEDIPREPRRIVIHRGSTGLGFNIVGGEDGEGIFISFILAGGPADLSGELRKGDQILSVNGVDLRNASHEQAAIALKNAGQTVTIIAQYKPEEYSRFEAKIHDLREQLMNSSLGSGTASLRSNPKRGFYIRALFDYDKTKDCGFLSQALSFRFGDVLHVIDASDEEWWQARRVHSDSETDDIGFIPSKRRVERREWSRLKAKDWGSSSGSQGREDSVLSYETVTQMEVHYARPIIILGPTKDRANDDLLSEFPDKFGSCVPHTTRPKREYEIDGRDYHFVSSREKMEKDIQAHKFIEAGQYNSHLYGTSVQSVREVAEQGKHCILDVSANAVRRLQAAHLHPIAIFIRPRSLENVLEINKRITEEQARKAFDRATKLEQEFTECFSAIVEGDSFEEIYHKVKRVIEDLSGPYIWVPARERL", "conditions": "reported by Bach", "data": [{"substance": "IESDV", "values": [{"measurement": "inhibiting binding of NMDAR 2B to PSD-95", "value": "effective in inhibiting binding of NMDAR 2B to PSD-95"}]}]}
